Measurements as given in patent publication US11360104, “Microbial-based biosensors” (TRUSTEES OF BOSTON UNIVERSITY).

Tests used:
[1] = molecular target: T1, PinR (AIY20223.2, TetR family) (Pimelobacter simplex); experiment: FRET; progesterone concentration for half-maximal DNA release; QD/TF/DNA 1/4/18; described as strongest binding sequence; conditions: tags: C-terminal His6, self-assembled on CdSe/CdS/ZnS quantum dot; label: Cy5 at 5' and 3'
T1 chain: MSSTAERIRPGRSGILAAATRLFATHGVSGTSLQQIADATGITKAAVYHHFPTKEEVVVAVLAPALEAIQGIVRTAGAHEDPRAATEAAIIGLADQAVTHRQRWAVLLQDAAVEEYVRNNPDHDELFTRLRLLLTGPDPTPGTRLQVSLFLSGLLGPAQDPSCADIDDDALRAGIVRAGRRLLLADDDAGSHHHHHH

[2] = molecular target: T1, PinR (AIY20223.2, TetR family); experiment: FRET; progesterone for half-maximal DNA release; QD/TF/DNA 1/4/18; conditions: tags: C-terminal His6, self-assembled on CdSe/CdS/ZnS quantum dot; label: Cy5 at 5' and 3'
TetRc-6His [3] = molecular target: T2, TetRc-6His (UniProt P03039 P03039:1-219); experiment: FRET; only collisional quenching; conditions: tags: His6, on quantum dot QD1; chain copies: 2; label: Cy5 at 5' and 3' of reverse strand
T2 chain: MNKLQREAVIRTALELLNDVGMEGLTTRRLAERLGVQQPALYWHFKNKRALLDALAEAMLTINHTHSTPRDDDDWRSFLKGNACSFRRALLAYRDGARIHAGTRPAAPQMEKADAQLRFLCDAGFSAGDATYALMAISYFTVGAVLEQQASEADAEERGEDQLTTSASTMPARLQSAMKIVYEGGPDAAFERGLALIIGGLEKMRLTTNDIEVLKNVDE
Method: (§1) For QD-based nanoconstructs, the his-tagged proteins self-assemble to the QD surface stoichiometrically according to the mixture ratio with a Poissonian distribution of proteins on the QD surface was used. […] Four his6-TetR monomers were used per QD for the titrations of Sensors 2 and 3 (FIG. 2A-C). […] Upon increasing DNA concentration, there is increased donor quenching in all three cases.
(§2) FRET assays. The FRET response of each sensor as a function of the donor-acceptor ratio was tested by titration of the acceptor while the concentration of the donor was kept constant. Briefly, the sensors were prepared in a solution of TBS+0.2% (w/v) BSA and 1× binding buffer (20 mM Tris-HCl, 5 mM MgCl_2, 5% glycerol, 50 ng/µl salmon sperm DNA). For Sensor 1, the final concentration of tetR-tdTomato was kept constant at 200 nM, while Cy5-modified DNA were titrated to yield donor-acceptor ratios ranging from 0-9. The sensor solution was pipetted into wells of a black, non-binding 384-well plate (Corning) with a final volume of 60 µl. For triplicate measurements, each of the above solutions were prepared with a final volume of 180 µl in microcentrifuge tubes and pipetted into 3 separate wells of 60 µl each.
(§3) For Sensors 2 and 3, QDs and tetR-6His were mixed at a 1:4 ratio with a final QD concentration of 50 nM for self-assembly of the tetR-6His to the surface of the QDs[21]. […]

TetRd-6His [4] = molecular target: T3, TetRd-6His (UniProt P0ACT4 P0ACT4:2-218); experiment: FRET; only collisional quenching; conditions: tags: His6, on quantum dot QD2; chain copies: 2; label: Cy5 at 5' and 3' of reverse strand
T3 sequence (P0ACT4 2-218, one chain of several): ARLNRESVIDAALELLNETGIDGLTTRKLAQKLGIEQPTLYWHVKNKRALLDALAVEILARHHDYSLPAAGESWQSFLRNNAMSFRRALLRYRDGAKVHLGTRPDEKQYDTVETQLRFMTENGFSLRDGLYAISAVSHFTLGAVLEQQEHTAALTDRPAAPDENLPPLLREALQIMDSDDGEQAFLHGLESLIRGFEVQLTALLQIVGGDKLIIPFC
Method: as §1, §2, §3

TetRc-tdTomato [5] = molecular target: T4, TetRc-tdTomato (UniProt P03039 P03039:1-219); experiment: FRET; only collisional quenching; conditions: tags: tdTomato fusion, Strep-tag purified; chain copies: 2; label: Cy5 at 5' and 3' of reverse strand
T4 chain: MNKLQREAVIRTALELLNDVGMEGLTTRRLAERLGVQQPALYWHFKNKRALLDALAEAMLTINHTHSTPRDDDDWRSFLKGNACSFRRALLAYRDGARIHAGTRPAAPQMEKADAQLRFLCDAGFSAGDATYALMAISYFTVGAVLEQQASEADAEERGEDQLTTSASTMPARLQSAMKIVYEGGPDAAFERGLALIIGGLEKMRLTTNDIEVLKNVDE
Method: as §1, §2

TetRd-6His [6] = molecular target: T3, TetRd-6His; experiment: FRET; aTc for half-maximal DNA release; lower DNA affinity than TetRc; 5 mM MgCl2; conditions: tags: His6, on quantum dot QD2; chain copies: 2; label: Cy5 at 5' and 3' of reverse strand
TetRc-tdTomato [7] = molecular target: T4, TetRc-tdTomato; experiment: FRET; aTc concentration for half-maximal DNA release; 5 mM MgCl2; conditions: tags: tdTomato fusion, Strep-tag purified; chain copies: 2; label: Cy5 at 5' and 3' of reverse strand
Method: (§4) At higher concentrations of aTc, binding of the TF and DNA is disrupted, reducing FRET, thereby increasing donor emission and reducing acceptor emission. Spectra are background subtracted to eliminate the effects of direct acceptor excitation. FIG. 3D-3F show the ratio of acceptor fluorescence intensity to donor fluorescence intensity as a function of aTc concentration. […] Sensor 1 was prepared with a 1:1:3 ratio of tdTomato:TF:DNA, while sensors 2 and 3 were prepared with a 1:4:18 ratio of QD:TF:DNA. tdTomato (200 nM) and QD (50 nM) concentrations were selected to keep TF concentration constant at 200 nM. Data are mean±standard deviation for n=3.
(§5) A TF to DNA ratio was chosen for each sensor (1:3 for Sensor 1, 1:4.5 for Sensors 2 and 3) and kept constant for subsequent experiments testing sensor sensitivity to aTc. Photoluminescence spectra were measured from sensors with increasing concentrations of aTc yielded changes in the ratio between the acceptor emission and donor emission (F_A/F_D). With increasing concentrations of aTc, F_A/F_D values decreased indicating unbinding of the DNA from the TF resulting in an increase in donor emission and decrease in acceptor emission (FIG. 3A-F). No changes were observed when aTc was titrated into a solution of non-binding donor-acceptor pairs (scrambled controls). […]

TetRc-6His [8] = molecular target: T2, TetRc-6His; experiment: as above; conditions: tags: His6, on quantum dot QD1; chain copies: 2; label: Cy5 at 5' and 3' of reverse strand
Method: as §4, §5

B1: DNA1 (AIY20223.2) (dsDNA)
DNA 1: GCCTAACTAGCCGTTCGGCTAGTTATTC
DNA 2: GAATAACTAGCCGAACGGCTAGTTAGGC
[1]
  IC50: 460 nM

B2: DNA4 (13,15-T,T) (dsDNA)
DNA 1: CCTTAACTAGCCGTTCTGTTAGTTATTC
DNA 2: GAATAACTAACAGAACGGCTAGTTAAGG
[2]
  IC50: 150 nM

B3: Scrambled TetO control (dsDNA)
DNA 1: TCGTGAAACCGAGCGAGGGACACGCACA
DNA 2: TGTGCGTGTCCCTCGCTCGGTTTCACGA
TetRc-6His [3]
  binding result: no binding
TetRd-6His [4]
  binding result: no binding
TetRc-tdTomato [5]
  binding result: no binding

B4: DNA2 (IG.AIY19519.15) (dsDNA)
DNA 1: GCCTAACTAGCCGATCGGCTAGTCATTC
DNA 2: GAATGACTAGCCGATCGGCTAGTTAGGC
[2]
  IC50: 370 nM

B5: DNA3 (AIY20222.2) (dsDNA)
DNA 1: GCCTAACTAGCCGTTCGGCAAGTAATTC
DNA 2: GAATTACTTGCCGAACGGCTAGTTAGGC
[2]
  IC50: 290 nM

B6: TetO 28 bp (dsDNA)
DNA 1: GTCATCCCTATCATTGATAGAGATACTG
DNA 2: CAGTATCTCTATCAATGATAGGGATGAC
TetRd-6His [6]
  EC50: 133 nM
TetRc-tdTomato [7]
  EC50: 218 nM
TetRc-6His [8]
  EC50: 699 nM
